Test results published in patent EP4541814A1.

Biological target: AAV9 viral particles (adeno-associated virus 9)
Assay: SPR (Biacore 8K+), biotinylated ligand on SA chip (4128 RU), AAV9 2E12 vp/ml

Substance: CaptureSelect Biotin Anti-AAV9 Conjugate (ThermoFisher Scientific)
- AAV9 capacity, 2E12 vp/ml (RU): 8860 RU
